# Reference: patent publication US6846803B1, “Antagonists specific for the corticotropin-releasing factor receptor type 2 (CRFR2)” (priority 1998, dated 2005)
# Residues, ends and D or L forms follow the SMILES beside them. No end group written: not given here.
# T1: rCRFR1 (Rattus norvegicus, UniProt P35353)
# T1 construct: expressed in transfected cells; host or cells: HEK 293 cells, stably transfected (HEK-rCRFR1)
# T1 sequence (P35353 24-415): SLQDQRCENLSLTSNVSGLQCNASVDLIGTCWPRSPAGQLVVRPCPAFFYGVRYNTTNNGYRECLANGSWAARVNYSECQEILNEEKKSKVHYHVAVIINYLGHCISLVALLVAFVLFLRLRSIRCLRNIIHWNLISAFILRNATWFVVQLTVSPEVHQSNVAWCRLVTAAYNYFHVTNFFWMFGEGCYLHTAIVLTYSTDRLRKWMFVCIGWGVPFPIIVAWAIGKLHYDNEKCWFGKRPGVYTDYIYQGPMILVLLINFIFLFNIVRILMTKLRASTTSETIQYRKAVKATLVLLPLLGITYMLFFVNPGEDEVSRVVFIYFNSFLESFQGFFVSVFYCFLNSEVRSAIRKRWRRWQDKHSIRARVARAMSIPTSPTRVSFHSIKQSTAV
# T2: rat CRF receptor, type 1 (rCRFR1) (rat, UniProt P35353 24-415)
# T2 sequence (looked up): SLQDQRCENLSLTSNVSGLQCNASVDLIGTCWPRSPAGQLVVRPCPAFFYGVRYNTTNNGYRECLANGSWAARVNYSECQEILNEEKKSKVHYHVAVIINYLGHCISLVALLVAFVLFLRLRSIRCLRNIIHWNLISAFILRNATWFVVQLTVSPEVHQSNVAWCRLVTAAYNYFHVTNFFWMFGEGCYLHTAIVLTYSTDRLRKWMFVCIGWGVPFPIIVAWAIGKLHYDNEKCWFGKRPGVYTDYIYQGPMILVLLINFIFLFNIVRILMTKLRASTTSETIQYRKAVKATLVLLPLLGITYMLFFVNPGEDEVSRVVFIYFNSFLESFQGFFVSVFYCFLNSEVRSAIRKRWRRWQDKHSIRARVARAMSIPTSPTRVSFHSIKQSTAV
# B1: [Tyr^11, His^12]Svg(11-40) (peptide)
# peptide: YHLLRKMIEIEKQEKEKQQAANNRLLLDTI
# modifications: ends and bridges not checked
# notes: also called compound 18
# B2: [Tyr^11]Svg(11-40) (peptide)
# peptide: YELLRKMIEIEKQEKEKQQAANNRLLLDTI
# modifications: ends and bridges not checked
# notes: also called compound 19
# B3: [^125I-Tyr^0]Svg (peptide)
# peptide: YZGPPISIDLSLELLRKMIEIEKQEKEKQQAANNRLLLDTI
# modifications: 125I-iodinated Tyr at position 0
# B4: ovine corticotropin-releasing factor (oCRF) (peptide)
# peptide: SQEPPISLDLTFHLLREVLEMTKADQLAQQAHSNRKLLDIA
# modifications: ends and bridges not checked
# notes: Synthetic peptide (Fmoc chemistry on TentaGel S RAM resin); also called compound 1
# What was measured:
# rCRFR1 [1] = target: T1, rCRFR1; assay: cAMP stimulation / inhibition of oCRF-stimulated cAMP production in HEK-rCRFR1 cells; type: cell-based
# Description: (§1) HEK-rCRFR1 cells or HEK-mCRFR2β cells were incubated with different CRF agonists in the presence or absence of 1 μM or 10 nM antagonist, or CRF antagonist (c=1 μM) alone. After removal of the medium, cells were lyzed with aqueous 6% trichloroacetic acid (5 min, 100° C.) (Rühmann, A., A. K. E. Köpke, F. M. Dautzenberg, and J. Spiess, Proc. Natl. Acad. Sci. USA 93: 10609-10613, 1996). The cell lysates were stored at −70° C. until assayed with a RIA kit (Amersham, Little Chalfont). […] Statistical significance was determined across groups with ANOVA, and significant differences between groups were determined by post hoc comparison using the Dunn test.
# (§2) Intrinsic activities were measured at peptide concentrations generating maximal formation of cAMP in HEK-rCRFR1 or HEK-mCRFR2β cells.
# CRFR2α = target: T3, CRFR2α (Mus musculus, UniProt Q60748); settings: BALB/c mice; brain area exclusively expressing CRF2α-mRNA; cited from earlier work
# T3 construct: from tissue; host or cells: lateral septum of BALB/c mice, in vivo
# mCRFR2β [2] = target: T4, mCRFR2β (Mus musculus, UniProt Q60748); assay: Displacement of [^125I-Tyr^0]Svg from membranes of HEK-mCRFR2β cells; type: binding
# T4 construct: expressed in transfected cells; host or cells: HEK 293 cells, stably transfected (HEK-mCRFR2β); membrane homogenates
# Description: (§3) Binding assays were performed in 96-well MultiScreen plates (Millipore, Eschborn, Germany) with GF/B filters (pore size 1.0 μm). […] After incubation (60 min, 23° C.), membrane suspension was aspirated through the plate, followed by two washes with assay buffer (0.2 ml, 23°). Radioactivity of the punched filters was measured with a 1470 WIZARD automatic gamma counter (Berthold, Hannover). […] Statistical analysis was performed with ANOVA, and significant differences between groups were determined by post hoc comparison using the Dunn test.
# (§4) Membrane homogenates of human embryonic kidney (HEK) 293 cells stably transfected with cDNA coding for rat CRF receptor, type 1 (rCRFR1) or mouse CRF receptor, type 2β (mCRFR2β) were prepared according to standard protocols (see, e.g., Sambrook et al., Molecular Cloning: A Laboratory Manual, 2nd. Edition, Cold Spring Habor Laboratory Press, Cold Spring Habor, N.Y., 1989; Ausubel et al., Current Protocols in Molecular Biology, Green Publishing Associates and Wiley Interscience, NY, 1989).
# rCRFR1 [3] = target: T1, rCRFR1; assay: Displacement of [^125I-Tyr^0]oCRF from membranes of HEK-rCRFR1 cells; type: binding
# Description: as §3, §4
# mCRFR2β [4] = target: T4, mCRFR2β; assay: cAMP stimulation / inhibition of Svg-stimulated cAMP production in HEK-mCRFR2β cells; type: cell-based
# Description: as §1, §2
# Target sequence in this assay (Q60748 1-431 isoform Q60748-2): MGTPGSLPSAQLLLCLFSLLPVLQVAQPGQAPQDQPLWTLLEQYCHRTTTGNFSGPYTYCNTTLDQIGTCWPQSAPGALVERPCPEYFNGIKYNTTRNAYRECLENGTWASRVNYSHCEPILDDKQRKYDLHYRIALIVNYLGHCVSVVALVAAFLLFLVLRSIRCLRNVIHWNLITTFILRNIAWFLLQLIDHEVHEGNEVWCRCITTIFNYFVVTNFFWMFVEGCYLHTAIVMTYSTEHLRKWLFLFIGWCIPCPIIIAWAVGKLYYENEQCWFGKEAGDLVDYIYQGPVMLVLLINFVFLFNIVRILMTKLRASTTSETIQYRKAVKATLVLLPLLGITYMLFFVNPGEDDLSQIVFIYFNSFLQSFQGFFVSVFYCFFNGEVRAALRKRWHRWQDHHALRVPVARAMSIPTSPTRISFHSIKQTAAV
# [5] = target: T2, rat CRF receptor, type 1 (rCRFR1); assay: cell-based or functional assay
# [6] = target: T2, rat CRF receptor, type 1 (rCRFR1); assay: displacement of [125I-Tyr0]oCRF from HEK-rCRFR1 membranes
# Description: as §3
# [7] = target: T2, rat CRF receptor, type 1 (rCRFR1); assay: cell-based or functional assay; remark: listed apart in the source
# [8] = target: mouse CRF receptor, type 2β (mCRFR2β) (mouse) (UniProt Q60748); assay: Kd(rCRFR1)/Kd(mCRFR2β) of the peptide normalised to that of astressin; radioligand displacement
# [9] = target: T2, rat CRF receptor, type 1 (rCRFR1); assay: radioligand displacement; this end of the range tied by the Kd ratio of Table 3 (220.9/153.6)
# Description: as §3
# [10] = target: mouse CRF receptor, type 2β (mCRFR2β) (mouse) (UniProt Q60748); assay: radioligand displacement; this end of the range tied by the Kd ratio of Table 3 (20.8/3.5)
# [11] = target: mouse CRF receptor, type 2β (mCRFR2β) (mouse) (UniProt Q60748); assay: radioligand binding to membranes of HEK-mCRFR2β cells, displaced by Svg
# [12] = target: T2, rat CRF receptor, type 1 (rCRFR1); assay: cell-based or functional assay; remark: listed apart in the source
# [13] = target: T2, rat CRF receptor, type 1 (rCRFR1); assay: cell-based or functional assay; remark: listed apart in the source
# T3 sequence (Q60748 whole entry): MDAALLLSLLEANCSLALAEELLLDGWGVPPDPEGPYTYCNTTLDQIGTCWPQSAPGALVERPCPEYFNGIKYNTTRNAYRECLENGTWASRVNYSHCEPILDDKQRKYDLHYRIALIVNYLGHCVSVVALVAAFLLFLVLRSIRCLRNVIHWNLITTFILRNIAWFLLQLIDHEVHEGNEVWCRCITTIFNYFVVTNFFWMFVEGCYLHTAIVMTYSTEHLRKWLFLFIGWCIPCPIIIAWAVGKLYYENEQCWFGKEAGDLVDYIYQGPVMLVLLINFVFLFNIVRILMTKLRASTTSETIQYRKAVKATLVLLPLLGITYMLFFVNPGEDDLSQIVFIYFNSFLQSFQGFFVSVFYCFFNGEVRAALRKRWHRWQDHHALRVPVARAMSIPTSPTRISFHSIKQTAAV
molecule,measurement,setting,value
"CC[C@H](C)[C@H](NC(=O)[C@@H](NC(=O)[C@H](CC(=O)O)NC(=O)[C@H](CC(C)C)NC(=O)[C@H](CC(C)C)NC(=O)[C@H](CC(C)C)NC(=O)[C@H](CCCNC(=N)N)NC(=O)[C@H](CC(N)=O)NC(=O)[C@H](CC(N)=O)NC(=O)[C@H](C)NC(=O)[C@H](C)NC(=O)[C@H](CCC(N)=O)NC(=O)[C@H](CCC(N)=O)NC(=O)[C@H](CCCCN)NC(=O)[C@H](CCC(=O)O)NC(=O)[C@H](CCCCN)NC(=O)[C@H](CCC(=O)O)NC(=O)[C@H](CCC(N)=O)NC(=O)[C@H](CCCCN)NC(=O)[C@H](CCC(=O)O)NC(=O)[C@@H](NC(=O)[C@H](CCC(=O)O)NC(=O)[C@@H](NC(=O)[C@H](CCSC)NC(=O)[C@H](CCCCN)NC(=O)[C@H](CCCNC(=N)N)NC(=O)[C@H](CC(C)C)NC(=O)[C@H](CC(C)C)NC(=O)[C@H](Cc1c[nH]cn1)NC(=O)[C@H](N)Cc1ccccc1)[C@@H](C)CC)[C@@H](C)CC)[C@@H](C)O)C(N)=O [[DPhe^11, His^12]Svg(11-40)]",inhibitory potency towards rCRFR1,"rCRFR1 [1]; HEK-rCRFR1 cells, difference significant",15 % of the potency of astressin
same,CRF-mediated behavioral effects in the lateral septum,CRFR2α,inhibited
"CC[C@H](C)[C@H](NC(=O)[C@@H](NC(=O)[C@H](CC(=O)O)NC(=O)[C@H](CC(C)C)NC(=O)[C@H](CC(C)C)NC(=O)[C@H](CC(C)C)NC(=O)[C@H](CCCNC(=N)N)NC(=O)[C@H](CC(N)=O)NC(=O)[C@H](CC(N)=O)NC(=O)[C@H](C)NC(=O)[C@H](C)NC(=O)[C@H](CCC(N)=O)NC(=O)[C@H](CCC(N)=O)NC(=O)[C@H](CCCCN)NC(=O)[C@H](CCC(=O)O)NC(=O)[C@H](CCCCN)NC(=O)[C@H](CCC(=O)O)NC(=O)[C@H](CCC(N)=O)NC(=O)[C@H](CCCCN)NC(=O)[C@H](CCC(=O)O)NC(=O)[C@@H](NC(=O)[C@H](CCC(=O)O)NC(=O)[C@@H](NC(=O)[C@H](CCSC)NC(=O)[C@H](CCCCN)NC(=O)[C@H](CCCNC(=N)N)NC(=O)[C@H](CC(C)C)NC(=O)[C@H](CC(C)C)NC(=O)[C@@H](N)Cc1ccc(O)cc1)[C@@H](C)CC)[C@@H](C)CC)[C@@H](C)O)C(N)=O [compound 20, [Tyr^12]Svg(12-40)] (H-YLLRKMIEIEKQEKEKQQAANNRLLLDTI-NH2; N-terminus assumed)",Kd,mCRFR2β [2],428 ± 119 nM
same,high-affinity binding to mCRFR2β,mCRFR2β [2]; N-terminal truncation by one amino acid and Glu^12 to tyrosine,completely abolished
same,Selectivity,"mCRFR2β [2]; Table 3, Kd(rCRFR1)(peptide)/Kd(rCRFR1)(astressin) × Kd(mCRFR2β)(astressin)/Kd(mCRFR2β)(peptide)",1.63
same,Kd,rCRFR1 [3],995 ± 337 nM
same,HEK-rCRFR1 cells rel. pot. (relative potency),"rCRFR1 [1]; Table 4, 1 μM antagonist, cAMP production stimulated by 1 nM oCRF, oCRF alone = 1.00",0.90 ± 0.02
same,Emax,rCRFR1 [1]; read-out: HEK-rCRFR1 cells rel. IA (relative intrinsic activity),6 ± 3%
same,HEK-mCRFR2β cells rel. pot. (relative potency),"mCRFR2β [4]; Table 4, 10 nM antagonist, cAMP production stimulated by 1 nM Svg, Svg alone = 1.00",0.80 ± 0.04
same,Emax,mCRFR2β [4]; read-out: HEK-mCRFR2β cells rel. IA (relative intrinsic activity),0.6 ± 0.2%
α-helical CRF(9-41) (peptide),"% IA (intrinsic activity), cAMP production, HEK-rCRFR1 cells (relative, oCRF = 1.00)",[5],0.16
B1,Kd,[6],221 nM
same,"rel. IA (relative intrinsic activity), cAMP production, HEK-rCRFR1 cells",[7],"0.03 relative, oCRF = 1.00"
same,"rel. pot. (relative potency), inhibition of oCRF-stimulated cAMP production, HEK-rCRFR1 cells",[7],"0.79 relative, oCRF = 1.00"
same,Selectivity,[8],31.6
same,fold decrease of binding affinity against antisauvagine-30 (compound 11),[9],1.4 to 5.9 fold
B2,Kd,[6],977 nM
same,fold decrease of binding affinity against [DPhe^11]Svg(11-40) (compound 12),[10],1.4 to 5.9 fold
same,"rel. IA (relative intrinsic activity), cAMP production, HEK-rCRFR1 cells",[7],"0.09 relative, oCRF = 1.00"
same,"rel. pot. (relative potency), inhibition of oCRF-stimulated cAMP production, HEK-rCRFR1 cells",[7],"0.82 relative, oCRF = 1.00"
same,Selectivity,[8],33
B3,specific binding,[11],94%
B4,"EC50, cAMP accumulation in HEK-rCRFR1 cells",[12],0.41 nM
same,"% IA (intrinsic activity), cAMP production, HEK-rCRFR1 cells",[13],"1 relative, oCRF = 1.00"
same,"rel. IA (relative intrinsic activity), cAMP production, HEK-rCRFR1 cells",[7],"1 relative, oCRF = 1.00"
same,Selectivity,[8],0.002
